This test addresses pY peptide GGGpYGGG. Description: BLI (Octet RED384), biotinylated peptide on streptavidin sensor, Fab in solution, 1:1 fit.

Regarding 4G10^4D5 (Fab), the dissociation constant (Kd) was 277 nM. Under PY20^4D5 (Fab) stands 1830 nM.

The record behind these values is patent US20200131277A1.
